For this test, the system named is rabbit model of thromboembolic stroke. Nature of the test: Rabbit model of thromboembolic stroke (clot embolization). The test is classed as in vivo. As to conditions: 16-HETE 1 mg/kg per minute for 1 h from 1 h after embolization; tPA 6.3 mg/kg at 3-5 h; FIG. 3. On the procedure: New Zealand rabbits of either sex, weighing 3-4 kilograms were used for the study. Prior to the start of the experiment, the rabbits were divided into three groups, those that were administered both 16-HETE at a rate of 1 mg/kg per minute for one hour and tPA (Genentech, Inc., San Francisco, Calif.) at a concentration of 6.3 mg/kg, tPA alone, or vehicle.
On the day of treatment the animals were fasted for 12 hours with free access to water and then anesthetized with an intramuscular solution of ketamine (50 mg/kg), acepromazine (20 mg) and xylazine (5 mg/kg). This solution was subsequently used to maintain a surgical depth of anesthesia as determined by responses to various physiologic and autonomic stimuli, including mean arterial pressure and response to paw pinch.
The animals were prepared for surgery by introducing femoral venous and arterial catheters (PE50 and 90, respectively; Clay Adams, Parsippany, N.J.). The catheters were placed for subsequent blood sampling, including blood gas and arterial pressure, drug infusions, and fluid replacement.
All animals were tracheotomized and mechanically ventilated in order to maintain arterial blood gases within a physiologic range. Arterial blood gas measurements (pH, pCO2, pO2) were determined, using a Corning 168 blood gas monitor. […]

B1: tPA: tissue plasminogen activator, thrombolytic agent (Genentech, Inc.) (protein, UniProt P00750 36-562, looked up)
Tissue-type plasminogen …: SYQVICRDEKTQMIYQQHQSWLRPVLRSNRVEYCWCNSGRAQCHSVPVKSCSEPRCFNGGTCQQALYFSDFVCQCPEGFAGKCCEIDTRATCYEDQGISYRGTWSTAESGAECTNWNSSALAQKPYSGRRPDAIRLGLGNHNYCRNPDRDSKPWCYVFKAGKYSSEFCSTPACSEGNSDCYFGNGSAYRGTHSLTESGASCLPWNSMILIGKVYTAQNPSAQALGLGKHNYCRNPDGDAKPWCHVLKNRRLTWEYCDVPSCSTCGLRQYSQPQFRIKGGLFADIASHPWQAAIFAKHRRSPGERFLCGGILISSCWILSAAHCFQERFPPHHLTVILGRTYRVVPGEEEQKFEVEKYIVHKEFDDDTYDNDIALLQLKSDSSRCAQESSVVRTVCLPPADLQLPDWTECELSGYGKHEALSPFYSERLKEAHVRLYPSSRCTSQHLLNRTVTDNMLCAGDTRSGGPQANLHDACQGDSGGPLVCLNDGRMTLVGIISWGLGCGQKDVPGVYTKVTNYLDWIRDNMRP
In the case of B1, the brain infarct size result was “significantly larger”.
